{"source": "paper PMC7229842", "about": "“Molecular basis of the multifaceted functions of human leucyl-tRNA synthetase in protein synthesis and beyond” (Nucleic Acids Research, 2020)", "binders": {"B1": {"name": "MRS-AIMP3 complex (human cytosolic methionyl-tRNA synthetase co-expressed with AIMP3) (complex)", "chain 1": "MRLFVSDGVPGCLPVLAAAGRARGRAEVLISTVGPEDCVVPFLTRPKVPVLQLDSGNYLFSTSAICRYFFLLSGWEQDDLTNQWLEWEATELQPALSAALYYLVVQGKKGEDVLGSVRRALTHIDHSLSRQNCPFLAGETESLADIVLWGALYPLLQDPAYLPEELSALHSWFQTLSTQEPCQRAAETVLKQQGVLALRPYLQKQPQPSPAEGRAVTNEPEEEELATLSEEEIAMAVTAWEKGLESLPPLRPQQNPVLPVAGERNVLITSALPYVNNVPHLGNIIGCVLSADVFARYSRLRQWNTLYLCGTDEYGTATETKALEEGLTPQEICDKYHIIHADIYRWFNISFDIFGRTTTPQQTKITQDIFQQLLKRGFVLQDTVEQLRCEHCARFLADRFVEGVCPFCGYEEARGDQCDKCGKLINAVELKKPQCKVCRSCPVVQSSQHLFLDLPKLEKRLEEWLGRTLPGSDWTPNAQFITRSWLRDGLKPRCITRDLKWGTPVPLEGFEDKVFYVWFDATIGYLSITANYTDQWERWWKNPEQVDLYQFMAKDNVPFHSLVFPCSALGAEDNYTLVSHLIATEYLNYEDGKFSKSRGVGVFGDMAQDTGIPADIWRFYLLYIRPEGQDSAFSWTDLLLKNNSELLNNLGNFINRAGMFVSKFFGGYVPEMVLTPDDQRLLAHVTLELQHYHQLLEKVRIRDALRSILTISRHGNQYIQVNEPWKRIKGSEADRQRAGTVTGLAVNIAALLSVMLQPYMPTVSATIQAQLQLPPPACSILLTNFLCTLPAGHQIGTVSPLFQKLENDQIESLRQRFGGGQAKTSPKPAVVETVTTAKPQQIQALMDEVTKQGNIVRELKAQKADKNEVAAEVAKLLDLKKQLAVAEGKPPEAPKGKKKK", "chain 2": "MAAAAELSLLEKSLGLSKGNKYSAQGERQIPVLQTNNGPSLTGLTTIAAHLVKQANKEYLLGSTAEEKAIVQQWLEYRVTQVDGHSSKNDIHTLLKDLNSYLEDKVYLTGYNFTLADILLYYGLHRFIVDLTVQEKEKYLNVSRWFCHIQHYPGIRQHLSSVVFIKNRLYTNSH", "notes": "human cytosolic methionyl-tRNA synthetase (MRS), gene cloned from the cDNA of HEK293 cells; Only MRS carries the Flag tag; It is the bait of the anti-Flag pull-down of the assembled MSC; source: co-expressed from a modified pETDuet-1, purified (Ni-NTA, gel filtration); not shown: Flag, C-terminal, kept"}}, "key": {"[1]": {"molecular_target": "T1, Human cytosolic glutamyl-prolyl-tRNA synthetase (human, UniProt P07814 1-1512)", "T1 construct": "human cytosolic EPRS, gene cloned from the cDNA of HEK293 cells; also called EPRS; source: recombinant from a modified pET28b, purified (Ni-NTA, gel filtration)", "T1 sequence (P07814 whole entry)": "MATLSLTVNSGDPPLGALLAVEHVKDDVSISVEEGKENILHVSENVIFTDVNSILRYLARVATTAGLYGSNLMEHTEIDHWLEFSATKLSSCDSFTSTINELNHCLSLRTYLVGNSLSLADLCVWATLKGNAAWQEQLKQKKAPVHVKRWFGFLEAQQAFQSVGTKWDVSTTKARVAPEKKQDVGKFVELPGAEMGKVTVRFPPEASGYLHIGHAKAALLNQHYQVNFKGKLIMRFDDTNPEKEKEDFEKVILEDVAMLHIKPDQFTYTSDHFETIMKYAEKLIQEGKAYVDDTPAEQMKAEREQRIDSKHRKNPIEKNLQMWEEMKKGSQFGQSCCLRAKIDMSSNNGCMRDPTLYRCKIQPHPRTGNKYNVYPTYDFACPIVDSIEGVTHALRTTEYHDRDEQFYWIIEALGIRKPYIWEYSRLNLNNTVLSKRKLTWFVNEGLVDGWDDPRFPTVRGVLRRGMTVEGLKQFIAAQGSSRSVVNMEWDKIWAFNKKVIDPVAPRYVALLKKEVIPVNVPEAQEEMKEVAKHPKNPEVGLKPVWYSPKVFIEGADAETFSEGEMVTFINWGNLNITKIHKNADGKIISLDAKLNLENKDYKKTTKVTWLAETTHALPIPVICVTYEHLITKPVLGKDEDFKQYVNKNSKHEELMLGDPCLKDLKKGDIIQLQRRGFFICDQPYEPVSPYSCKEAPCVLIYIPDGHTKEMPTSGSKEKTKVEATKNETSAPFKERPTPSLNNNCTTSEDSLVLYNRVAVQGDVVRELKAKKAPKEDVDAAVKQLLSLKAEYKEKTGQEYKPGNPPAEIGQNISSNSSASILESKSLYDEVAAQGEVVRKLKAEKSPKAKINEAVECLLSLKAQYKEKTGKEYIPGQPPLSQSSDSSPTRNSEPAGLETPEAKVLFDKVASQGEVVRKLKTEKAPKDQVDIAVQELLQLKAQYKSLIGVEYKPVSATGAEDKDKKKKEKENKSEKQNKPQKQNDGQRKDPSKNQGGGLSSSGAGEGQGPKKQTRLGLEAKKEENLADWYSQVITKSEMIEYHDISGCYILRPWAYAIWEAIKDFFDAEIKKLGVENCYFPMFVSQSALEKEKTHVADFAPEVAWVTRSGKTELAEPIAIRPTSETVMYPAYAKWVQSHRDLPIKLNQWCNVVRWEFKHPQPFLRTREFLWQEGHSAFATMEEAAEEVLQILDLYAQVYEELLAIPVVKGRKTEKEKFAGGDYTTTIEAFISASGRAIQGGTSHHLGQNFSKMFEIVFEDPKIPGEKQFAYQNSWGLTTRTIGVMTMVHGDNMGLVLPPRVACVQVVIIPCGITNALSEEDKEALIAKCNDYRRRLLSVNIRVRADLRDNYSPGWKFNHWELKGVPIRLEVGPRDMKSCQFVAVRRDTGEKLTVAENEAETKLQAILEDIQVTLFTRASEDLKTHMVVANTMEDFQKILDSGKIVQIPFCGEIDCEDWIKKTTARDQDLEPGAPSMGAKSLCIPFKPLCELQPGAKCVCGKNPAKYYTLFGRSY", "assay": "pull-down; in vitro assembly of the MSC as in a2 but lacking IRS; anti-Flag beads on MRS-Flag", "conditions": "both partners purified"}, "[2]": {"molecular_target": "T2, Human cytosolic isoleucyl-tRNA synthetase (human, UniProt P41252 1-1262)", "T2 construct": "human cytosolic isoleucyl-tRNA synthetase (IRS), gene cloned from the cDNA of HEK293 cells; also called IRS; source: recombinant from a modified pET28b, purified (Ni-NTA, gel filtration)", "T2 sequence (looked up)": "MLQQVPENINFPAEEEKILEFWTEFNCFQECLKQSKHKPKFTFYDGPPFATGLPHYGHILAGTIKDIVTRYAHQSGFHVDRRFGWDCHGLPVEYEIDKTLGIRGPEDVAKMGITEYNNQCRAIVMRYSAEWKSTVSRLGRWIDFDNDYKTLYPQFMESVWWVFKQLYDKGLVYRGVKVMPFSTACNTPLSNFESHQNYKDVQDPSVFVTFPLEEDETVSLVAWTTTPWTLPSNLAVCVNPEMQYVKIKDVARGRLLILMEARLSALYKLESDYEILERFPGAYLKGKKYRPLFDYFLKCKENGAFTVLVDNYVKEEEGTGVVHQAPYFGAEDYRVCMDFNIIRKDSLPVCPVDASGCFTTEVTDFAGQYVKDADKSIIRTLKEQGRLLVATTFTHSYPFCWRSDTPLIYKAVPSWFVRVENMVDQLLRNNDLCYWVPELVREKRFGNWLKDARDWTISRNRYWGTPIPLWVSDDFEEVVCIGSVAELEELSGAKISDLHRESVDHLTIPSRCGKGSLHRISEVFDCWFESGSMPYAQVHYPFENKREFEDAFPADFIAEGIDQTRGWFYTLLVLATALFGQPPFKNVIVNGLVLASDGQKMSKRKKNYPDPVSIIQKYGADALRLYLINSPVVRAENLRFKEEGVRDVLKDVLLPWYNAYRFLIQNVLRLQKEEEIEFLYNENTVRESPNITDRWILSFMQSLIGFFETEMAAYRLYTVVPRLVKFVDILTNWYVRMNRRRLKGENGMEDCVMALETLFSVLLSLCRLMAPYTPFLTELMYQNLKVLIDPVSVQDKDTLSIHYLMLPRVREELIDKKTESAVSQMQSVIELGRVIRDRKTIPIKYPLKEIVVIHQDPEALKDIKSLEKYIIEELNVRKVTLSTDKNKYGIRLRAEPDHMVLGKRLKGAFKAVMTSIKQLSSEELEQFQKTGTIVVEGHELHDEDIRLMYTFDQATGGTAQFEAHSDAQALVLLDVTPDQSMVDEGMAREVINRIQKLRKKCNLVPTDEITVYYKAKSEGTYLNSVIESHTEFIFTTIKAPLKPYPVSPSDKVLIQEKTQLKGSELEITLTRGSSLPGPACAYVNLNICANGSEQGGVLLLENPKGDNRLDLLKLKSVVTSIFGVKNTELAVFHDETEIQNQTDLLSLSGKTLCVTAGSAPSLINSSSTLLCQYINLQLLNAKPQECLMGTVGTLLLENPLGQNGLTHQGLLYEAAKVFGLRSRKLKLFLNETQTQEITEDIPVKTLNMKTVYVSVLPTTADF", "assay": "pull-down; in vitro assembly of the MSC as in a2 but lacking hcLRS; anti-Flag beads on MRS-Flag", "conditions": "both partners purified"}}}
{"binder": "B1", "values": [{"measurement": "binding result", "setting": "[1]", "value": "binds"}, {"measurement": "binding result", "setting": "[2]", "value": "binds"}]}
